Experimental findings from US20130202609A1 (Novartis, published 2013) are described below.

For this test, the target named is T1, 150 kDa C-terminal fragment of wild-type GAS57 (Streptococcus pyogenes (M1 SF370)).
T1 construct: also called 150 kDa fragment; 150.5 kDa fragment
T1 chain: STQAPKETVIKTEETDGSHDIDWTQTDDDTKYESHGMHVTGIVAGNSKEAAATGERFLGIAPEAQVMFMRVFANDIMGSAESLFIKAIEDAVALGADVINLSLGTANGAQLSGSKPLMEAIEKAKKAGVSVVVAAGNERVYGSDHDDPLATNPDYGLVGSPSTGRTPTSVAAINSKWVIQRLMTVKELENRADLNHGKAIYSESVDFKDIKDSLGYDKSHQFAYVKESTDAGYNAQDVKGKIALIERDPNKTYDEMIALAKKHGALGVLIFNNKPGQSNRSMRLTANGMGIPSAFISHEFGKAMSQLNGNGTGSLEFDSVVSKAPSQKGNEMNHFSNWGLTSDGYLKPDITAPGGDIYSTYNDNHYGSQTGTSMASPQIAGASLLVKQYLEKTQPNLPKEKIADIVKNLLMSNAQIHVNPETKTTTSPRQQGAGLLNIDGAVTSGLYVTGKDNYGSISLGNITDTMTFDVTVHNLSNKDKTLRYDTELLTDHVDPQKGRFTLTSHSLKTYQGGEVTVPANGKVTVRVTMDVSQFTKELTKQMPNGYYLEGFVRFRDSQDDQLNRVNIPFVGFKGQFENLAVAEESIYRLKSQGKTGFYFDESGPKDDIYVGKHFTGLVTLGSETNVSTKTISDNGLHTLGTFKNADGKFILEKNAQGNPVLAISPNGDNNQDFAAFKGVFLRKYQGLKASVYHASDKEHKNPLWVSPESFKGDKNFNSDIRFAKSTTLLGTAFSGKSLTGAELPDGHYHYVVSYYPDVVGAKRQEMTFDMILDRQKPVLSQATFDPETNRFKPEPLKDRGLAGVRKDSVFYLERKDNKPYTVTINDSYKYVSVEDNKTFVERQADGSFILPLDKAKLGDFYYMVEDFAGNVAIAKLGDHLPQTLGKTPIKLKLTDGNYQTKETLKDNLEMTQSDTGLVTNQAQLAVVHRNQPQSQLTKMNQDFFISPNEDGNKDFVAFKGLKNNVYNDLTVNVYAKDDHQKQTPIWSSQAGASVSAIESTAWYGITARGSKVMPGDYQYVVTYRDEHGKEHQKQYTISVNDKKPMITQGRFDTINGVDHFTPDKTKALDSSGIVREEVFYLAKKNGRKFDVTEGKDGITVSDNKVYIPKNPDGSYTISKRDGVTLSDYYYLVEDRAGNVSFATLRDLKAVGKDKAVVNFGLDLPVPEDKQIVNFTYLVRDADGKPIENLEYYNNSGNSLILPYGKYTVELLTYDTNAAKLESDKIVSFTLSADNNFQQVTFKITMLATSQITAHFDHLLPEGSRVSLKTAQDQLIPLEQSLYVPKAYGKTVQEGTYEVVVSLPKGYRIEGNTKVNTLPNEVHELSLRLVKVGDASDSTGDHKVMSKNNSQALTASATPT
The test can be described thus: co-purification on Ni-chelating affinity column and gel filtration; SDS-PAGE. A general note: Size exclusion chromatography separates by hydrodynamic size, large species first.

B1: 23 kDa N-terminal fragment of wild-type GAS57 (other)
chain: ADELSTMSEPTITNHAQQQAQHLTNTELSSAESKSQDTSQITLKTNREKEQSQDLVSEPTTTELADTDAASMANTGSDATQKSASLPPVNTDVHDWVKTKGAWDKGYKGQGKVVAVIDTGIDPAHQSMRISDVSTAKVKSKEDMLARQKAAGINYGSWINDKVVFAHNYVENSDNIKENQFEDFDEDWENFEFDAEAEPKAIKKHKIYRPQ
notes: also called 23 kDa fragment; 23.4 kDa fragment
For the molecule B1, the binding result is reported as “binds”.
